Results taken from patent publication US20160298117, “PEANUT-BINDING NUCLEIC ACID MOLECULE AND USE THEREOF” (NEC Solution Innovators, Ltd., published 2016).

T1: conarachin (undenatured) (Arachis hypogaea) (UniProt P43238)
T1 sequence: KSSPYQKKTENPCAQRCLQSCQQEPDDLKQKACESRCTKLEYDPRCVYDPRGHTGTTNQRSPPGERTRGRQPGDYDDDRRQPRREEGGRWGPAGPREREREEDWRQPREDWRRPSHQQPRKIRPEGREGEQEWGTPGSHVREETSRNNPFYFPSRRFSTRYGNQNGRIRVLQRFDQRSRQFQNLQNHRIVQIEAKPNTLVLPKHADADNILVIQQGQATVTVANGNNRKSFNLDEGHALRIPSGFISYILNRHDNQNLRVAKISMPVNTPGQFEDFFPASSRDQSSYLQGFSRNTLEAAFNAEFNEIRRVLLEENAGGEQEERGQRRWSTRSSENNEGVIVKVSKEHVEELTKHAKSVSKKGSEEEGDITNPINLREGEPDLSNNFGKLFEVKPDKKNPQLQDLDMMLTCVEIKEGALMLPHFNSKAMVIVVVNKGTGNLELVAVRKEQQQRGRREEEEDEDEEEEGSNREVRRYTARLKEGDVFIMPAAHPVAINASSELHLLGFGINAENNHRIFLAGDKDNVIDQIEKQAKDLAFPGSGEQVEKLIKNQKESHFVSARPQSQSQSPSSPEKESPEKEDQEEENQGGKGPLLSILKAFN

T2: Ara h1 (heat-denatured, purified from parboiled peanut) (Arachis hypogaea, UniProt P43238 P43238:26-626)
T2 sequence: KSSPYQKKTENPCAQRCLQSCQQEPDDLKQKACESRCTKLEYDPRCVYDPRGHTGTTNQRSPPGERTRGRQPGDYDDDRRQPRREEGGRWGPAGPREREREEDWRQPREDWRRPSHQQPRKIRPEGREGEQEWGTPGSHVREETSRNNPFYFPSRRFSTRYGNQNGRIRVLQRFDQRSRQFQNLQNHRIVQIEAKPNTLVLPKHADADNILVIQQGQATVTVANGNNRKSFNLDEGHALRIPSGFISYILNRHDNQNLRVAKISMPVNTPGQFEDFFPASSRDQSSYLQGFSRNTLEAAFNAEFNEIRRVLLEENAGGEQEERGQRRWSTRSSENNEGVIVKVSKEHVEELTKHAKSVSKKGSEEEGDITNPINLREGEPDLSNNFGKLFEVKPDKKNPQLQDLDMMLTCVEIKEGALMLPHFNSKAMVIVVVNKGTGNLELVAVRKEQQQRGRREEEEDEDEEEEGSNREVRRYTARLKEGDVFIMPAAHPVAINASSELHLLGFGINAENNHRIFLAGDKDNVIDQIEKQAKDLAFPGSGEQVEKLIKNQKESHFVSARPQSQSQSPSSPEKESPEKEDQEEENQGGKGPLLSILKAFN

T3: conarachin (heat-denatured, boiled 10 min) (Arachis hypogaea, UniProt P43238 P43238:26-626)
T3 sequence: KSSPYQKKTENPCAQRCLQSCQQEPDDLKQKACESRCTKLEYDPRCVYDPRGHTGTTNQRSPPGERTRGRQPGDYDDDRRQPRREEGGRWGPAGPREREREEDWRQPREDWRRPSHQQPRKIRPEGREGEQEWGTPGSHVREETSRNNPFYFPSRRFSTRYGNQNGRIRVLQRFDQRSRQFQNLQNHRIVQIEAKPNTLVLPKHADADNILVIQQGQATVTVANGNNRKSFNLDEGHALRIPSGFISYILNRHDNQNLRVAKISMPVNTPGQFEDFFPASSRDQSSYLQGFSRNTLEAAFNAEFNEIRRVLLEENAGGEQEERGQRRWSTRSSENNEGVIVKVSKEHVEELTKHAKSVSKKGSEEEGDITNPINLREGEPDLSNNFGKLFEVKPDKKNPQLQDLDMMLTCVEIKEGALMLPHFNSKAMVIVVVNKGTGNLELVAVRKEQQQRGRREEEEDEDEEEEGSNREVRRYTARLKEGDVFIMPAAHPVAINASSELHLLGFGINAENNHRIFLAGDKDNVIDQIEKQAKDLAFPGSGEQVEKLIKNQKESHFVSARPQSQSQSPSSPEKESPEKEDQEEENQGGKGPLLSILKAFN

T4: conarachin (undenatured) (Arachis hypogaea, UniProt P43238 P43238:26-626)
T4 sequence: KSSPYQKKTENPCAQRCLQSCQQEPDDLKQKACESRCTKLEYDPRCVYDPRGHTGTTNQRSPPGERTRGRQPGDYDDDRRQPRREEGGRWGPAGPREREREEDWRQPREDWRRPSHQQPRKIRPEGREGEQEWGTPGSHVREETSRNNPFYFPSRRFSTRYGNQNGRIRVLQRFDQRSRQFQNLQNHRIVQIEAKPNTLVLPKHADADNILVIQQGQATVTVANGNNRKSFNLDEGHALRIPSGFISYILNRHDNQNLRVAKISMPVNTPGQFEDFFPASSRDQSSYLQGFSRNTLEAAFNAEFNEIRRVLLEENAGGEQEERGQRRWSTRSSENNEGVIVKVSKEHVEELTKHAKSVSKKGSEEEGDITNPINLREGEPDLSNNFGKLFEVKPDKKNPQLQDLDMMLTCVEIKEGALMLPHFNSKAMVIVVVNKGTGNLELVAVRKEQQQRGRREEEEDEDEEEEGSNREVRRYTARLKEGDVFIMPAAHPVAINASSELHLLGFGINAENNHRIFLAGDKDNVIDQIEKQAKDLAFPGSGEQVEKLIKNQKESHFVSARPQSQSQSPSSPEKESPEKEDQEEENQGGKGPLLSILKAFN


What was measured:
[1] = biological target: T1, conarachin (undenatured) (Arachis hypogaea); assay: SPR; details: all T replaced by 5-tryptaminocarbonyl-dU (TrpdU); printed as P_M_NES01 in table; same SPR buffer
[2] = biological target: T5, beta-conglycinin (undenatured) (Glycine max, UniProt P0DO16;P11827;P25974 P0DO16:63-605,P11827:63-621,P25974:24-439); assay: SPR; little binding, 18.75-300 nM; details: tags: Sigma C5868-5GM
T5 sequence (P0DO16 63-605, chain 1 of 3): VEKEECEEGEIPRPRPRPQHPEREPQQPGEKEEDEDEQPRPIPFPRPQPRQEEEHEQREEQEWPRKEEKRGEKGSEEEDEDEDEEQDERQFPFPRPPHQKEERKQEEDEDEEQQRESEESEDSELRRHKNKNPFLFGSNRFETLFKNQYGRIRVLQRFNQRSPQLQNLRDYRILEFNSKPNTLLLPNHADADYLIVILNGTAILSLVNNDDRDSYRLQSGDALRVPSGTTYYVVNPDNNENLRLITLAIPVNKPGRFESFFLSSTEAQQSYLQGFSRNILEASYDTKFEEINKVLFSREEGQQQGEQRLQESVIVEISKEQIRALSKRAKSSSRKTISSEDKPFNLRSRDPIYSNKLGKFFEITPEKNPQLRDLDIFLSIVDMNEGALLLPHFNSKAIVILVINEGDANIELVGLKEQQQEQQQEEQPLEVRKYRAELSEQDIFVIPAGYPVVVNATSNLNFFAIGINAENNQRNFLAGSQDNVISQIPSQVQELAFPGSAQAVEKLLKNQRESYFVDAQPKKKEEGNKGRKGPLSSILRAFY
T5 sequence (P11827 63-621, chain 2 of 3): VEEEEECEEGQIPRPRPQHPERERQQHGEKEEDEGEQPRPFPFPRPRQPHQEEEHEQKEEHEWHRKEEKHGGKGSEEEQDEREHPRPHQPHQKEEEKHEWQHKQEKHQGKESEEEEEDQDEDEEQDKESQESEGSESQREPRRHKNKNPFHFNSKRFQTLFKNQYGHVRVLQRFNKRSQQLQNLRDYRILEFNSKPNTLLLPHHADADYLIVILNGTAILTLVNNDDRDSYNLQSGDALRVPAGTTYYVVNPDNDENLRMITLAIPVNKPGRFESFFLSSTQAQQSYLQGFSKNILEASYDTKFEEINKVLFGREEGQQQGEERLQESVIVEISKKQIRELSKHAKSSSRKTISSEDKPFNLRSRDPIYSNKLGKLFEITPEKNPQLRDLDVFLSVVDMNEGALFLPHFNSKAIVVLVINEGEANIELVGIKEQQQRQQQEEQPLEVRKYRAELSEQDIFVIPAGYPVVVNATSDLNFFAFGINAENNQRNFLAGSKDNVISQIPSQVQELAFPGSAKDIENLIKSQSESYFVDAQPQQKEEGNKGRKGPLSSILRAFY
T5 sequence (P25974 24-439, chain 3 of 3): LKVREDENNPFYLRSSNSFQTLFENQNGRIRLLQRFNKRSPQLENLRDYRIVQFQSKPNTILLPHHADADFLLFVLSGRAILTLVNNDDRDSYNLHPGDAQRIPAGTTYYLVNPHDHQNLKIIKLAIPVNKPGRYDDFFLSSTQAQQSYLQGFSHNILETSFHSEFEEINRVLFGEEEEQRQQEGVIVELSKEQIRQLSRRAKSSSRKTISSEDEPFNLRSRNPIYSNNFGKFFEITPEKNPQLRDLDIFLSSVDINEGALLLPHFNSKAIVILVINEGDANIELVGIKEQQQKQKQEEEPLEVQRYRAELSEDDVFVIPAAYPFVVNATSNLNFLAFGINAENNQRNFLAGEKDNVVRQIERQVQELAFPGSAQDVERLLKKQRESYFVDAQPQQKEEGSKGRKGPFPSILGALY
Description: (§1) First, as a sensor chip designed specifically for the ProteON, a streptavidin-immobilized chip (trade name: ProteOn NLC Sensor Chip, BioRad) was set in the ProteON XPR36. Biotinylated poly(dT) at 5 μmol/L was injected to a flow cell of the sensor chip using ultrapure water (DDW), and the binding was allowed to proceed until the signal intensity (RU: Resonance Unit) reached about 900 RU. The biotinylated poly(dT) was prepared by biotinylating the 5′ end of 24-mer deoxythymidine. Then, the poly(dA)-added aptamer at 1 μmol/L was injected to the flow cell of the chip using an SPR buffer at a flow rate of 25 μL/min for 80 seconds, and the binding was allowed to proceed until the signal intensity reached about 800 RU. […] Subsequently, the sample was injected using the SPR buffer at a flow rate of 50 μL/min for 120 seconds, followed by washing performed by flowing the SPR buffer under the same conditions. Signal intensity measurement was performed concurrently with the injection of the sample and the washing with the SPR buffer.
(§2) The concentrations of the β-conglycinin were set to 18.75, 37.5, 75, 150, and 300 nmol/L, and the protein concentrations in the soybean samples were set to 1, 3, 10, 30, and 100 ppm. The SPR analysis was performed in the same manner as in Example 1, except that these samples were used. Then, from the results of the above-described SPR analysis, the relative binding value was determined regarding the proteins in each peanut sample bound to the aptamer immobilized on the chip. The relative binding value was calculated as the ratio of the protein binding measured value to the aptamer immobilization measured value (the protein binding measured value/the aptamer immobilization measured value).

[3] = biological target: T2, Ara h1 (heat-denatured, purified from …); assay: SPR; 40 mM HEPES pH 7.5, 125 mM NaCl, 5 mM KCl, 1 mM MgCl2, 0.05% Tween 20; details: tags: INDOOR biotechnologies NA-AH1-1
Description: as §1
Samples were prepared by adjusting commercially available peanut allergen Ara h1 (INDOOR biotechnologies, #NA-AH1-1, Blanched peanut, crushed [Runner cultivar]) to 50 nmol/L, 25 nmol/L, 12.5 nmol/L, and 6.25 nmol/L. The Ara h1, which is purified from parboiled peanuts, is a heat-denatured protein. The SPR analysis was carried out in the same manner as in Example 1, and the kinetic parameter was calculated from the results of the analysis.

[4] = biological target: beta-conglycinin (heat-denatured, boiled 10 min) (Glycine max, UniProt P0DO16;P11827;P25974 P0DO16:63-605,P11827:63-621,P25974:24-439); assay: SPR; little binding, 18.75-300 nM; details: tags: Sigma C5868-5GM
Chain of beta-conglycinin (heat-denatured, boiled 10 min) (P0DO16 63-605, chain 1 of 3): as the sequence (P0DO16 63-605, chain 1 of 3) above
Chain of beta-conglycinin (heat-denatured, boiled 10 min) (P11827 63-621, chain 2 of 3): as the sequence (P11827 63-621, chain 2 of 3) above
Chain of beta-conglycinin (heat-denatured, boiled 10 min) (P25974 24-439, chain 3 of 3): as the sequence (P25974 24-439, chain 3 of 3) above
Description: as §1, with “Biotinylated” for “First, as a sensor chip designed specifically for the ProteON, a streptavidin-immobilized chip (trade name: ProteOn NLC Sensor Chip, BioRad) was set in the ProteON XPR36. Biotinylated”
As soybean allergen samples, undenatured β-conglycinin, heat-denatured β-conglycinin, undenatured soybean proteins, and heat-denatured soybean proteins were provided. A commercially available product (Sigma, trade name β-conglycinin from Glycine max (soybean), C5868-5GM) was used as the undenatured β-conglycinin. The heat-denatured β-conglycinin was prepared by boiling the undenatured β-conglycinin for 10 minutes and then collecting a supernatant fraction. As the undenatured soybean proteins and the heat-denatured soybean proteins, the undenatured soybean sample and the heat-denatured soybean sample in Example 1 were used.
as §2, with “chip.” for “chip. The relative binding value was calculated as the ratio of the protein binding measured value to the aptamer immobilization measured value (the protein binding measured value/the aptamer immobilization measured value).”

[5] = biological target: T3, conarachin (heat-denatured, boiled 10 …); assay: SPR; 3.125-50 nM; superior to undenatured; details: tags: COSMO BIO CSB-CSB-NP003601PL
Description: (§3) First, as a sensor chip designed specifically for the ProteON, a streptavidin-immobilized chip (trade name: ProteOn NLC Sensor Chip, BioRad) was set in the ProteON XPR36. Biotinylated poly(dT) at 5 μmol/L was injected to a flow cell of the sensor chip using ultrapure water (DDW), and the binding was allowed to proceed until the signal intensity (RU: Resonance Unit) reached about 900 RU. The biotinylated poly(dT) was prepared by biotinylating the 5′ end of 24-mer deoxythymidine. Then, the poly(dA)-added aptamer at 1 μmol/L was injected to the flow cell of the chip using an SPR buffer at a flow rate of 25 μL/min for 80 seconds, and the binding was allowed to proceed until the signal intensity reached about 800 RU. […]
(§4) Samples were prepared by adjusting the undenatured conarachin to predetermined concentrations (10, 30, 100, 300, and 1000 nmol/L) and the heat-denatured conarachin to predetermined concentrations (3.125, 6.25, 12.5, 25, and 50 nmol/L). […] From the results of the above-described SPR analysis, the relative binding value was determined regarding the conarachin bound to the aptamer immobilized on the chip. The relative binding value was calculated as the ratio of the protein binding measured value to the aptamer immobilization measured value (the protein binding measured value/the aptamer immobilization measured value).

[6] = biological target: T2, Ara h1 (heat-denatured, purified from …); assay: SPR; 6.25-100 nM Ara h1; details: tags: INDOOR biotechnologies NA-AH1-1
Description: as §3
as §4, with “Ara h1 used in Example 2” for “undenatured conarachin”, “(6.25,” for “(10, 30, 100, 300, and 1000 nmol/L) and the heat-denatured conarachin to predetermined concentrations (3.125, 6.25,”, “25, 50,” for “25,”, “100” for “50”, “Ara h1” for “conarachin”

conarachin (undenatured) [7] = biological target: T4, conarachin (undenatured); assay: SPR; 10-1000 nM conarachin; details: tags: COSMO BIO CSB-CSB-NP003601PL
Description: as §3, §4

conarachin (undenatured) [8] = biological target: T4, conarachin (undenatured); assay: SPR; same SPR buffer; details: tags: COSMO BIO CSB-CSB-NP003601PL
Description: as §3
Samples were prepared by adjusting commercially available peanut allergen conarachin (COSMO BIO, CSB-CSB-NP003601PL, Arachis hypogaea seed, Native) to 50 nmol/L, 25 nmol/L, 12.5 nmol/L, 6.25 nmol/L, and 3.125 nmol/L. The conarachin is a undenatured protein, and the conarachin generally accounts for about 17% of the total amount of peanut proteins in a peanut. The SPR analysis was carried out in the same manner as in Example 1, and the kinetic parameter was calculated from the results of the analysis.

[9] = biological target: T2, Ara h1 (heat-denatured, purified from …); assay: SPR; very high binding; details: tags: INDOOR biotechnologies NA-AH1-1
Description: as §1
(§5) Except that the following eight types of aptamers were used as pyrimidine-rich aptamers, the binding forces to Ara h1, heat-denatured peanut proteins, undenatured β-conglycinin, and heat-denatured soybean proteins were examined by SPR in the same manner as in the above-described examples.

[10] = biological target: T5, beta-conglycinin (undenatured); assay: SPR; little binding; details: tags: Sigma C5868-5GM
Description: as §1, §5

Row | Molecule | binding result [2] | Kd [3] [nM] | binding result [4] | also measured
1 | GGATTCCGTGCCGTGCTAAAGGCCTCCCCGTTTATAGGCAGGTATCCGGCAGACTACTGGGCTTGCGACAAATGAAAAAAAAAAAAAAAAAAAAAAAA [P_NES_M01 (CONA170TEDAR2R8m1)] |  |  |  | Kd [1]: 0.0388 nM
2 | P_NES03 (CONA161R2R8m1s32) (ssDNA) DNA: GTTCGTGGTGTGTTGTGTGTGATTCCAGGGACAAAAAAAAAAAAAAAAAAAAAAAA | no binding | 0.173 | no binding | 
3 | GTTTTCTAGGCCAATCTGATCAACAAAAAAAAAAAAAAAAAAAAAAAA (ssDNA) [P_NES04 (CONA171NNHR2R8m2s24)] | no binding | 0.141 | no binding | 
4 | P_NES02 (CONA161R8m1s31) (ssDNA) DNA: GAATCCGCGGGGTAGCGGTGGCGAGCGATTCAAAAAAAAAAAAAAAAAAAAAAAA | no binding |  | no binding | binding result [5]: binds; binding result [6]: binds; binding result (conarachin (undenatured) [7]): binds
5 | TTTTTTTTTTTTTTTTTTTTAAAAAAAAAAAAAAAAAAAAAAAA (ssDNA) [PolydT20] | no binding | 0.19 | no binding | Kd (conarachin (undenatured) [8]): 0.263 nM
6 | CTCTCTCTCCCCCCCCCCCTCTCTCAAAAAAAAAAAAAAAAAAAAAAAA (ssDNA) [CT25_C11] |  |  |  | binding result [9]: binds; binding result [10]: no binding
7 | CTCTCTCTCTCCCCCCCTCTCTCTCAAAAAAAAAAAAAAAAAAAAAAAA (ssDNA) [CT25_C7] |  |  |  | binding result [9]: binds; binding result [10]: no binding
